Two sequences from patent US10137183B2, “Peptide compositions having 4 linked CTL epitopes and uses thereof” (TAIHO PHARMACEUTICAL CO., LTD., priority 2013, dated 2018) can be followed below.

The target of this experiment is T1, Human 20S immunoproteasomes (Homo sapiens, UniProt P28062+P28065+P40306).
T1 construct: purchased R&D systems
Put plainly: Peptide cleavage with human 20S immunoproteasomes (i20S), LC/MS-MS of fragments. Format: biochemical. To be noted: 66.7 μg/mL peptide, 37° C., 1, 2 or 4 hours. The protocol: Cleavage samples of peptides having 4 linked epitopes were prepared in the manner described below. Specifically, peptides having 4 linked epitopes were diluted to 66.7 μg/mL with a reaction buffer (20 mM HEPES-KOH, pH 7.8, 2 mM MgAc2, 2 mM dithiothreitol), and the resultant was dispensed into reaction tubes in amounts of 300 μL per tube. Human 20S immunoproteasomes (R&D systems) were added thereto in amounts of 2 μg per tube, the mixtures were agitated, and the resultants were then subjected to incubation with shaking at 37° C. for 1, 2, or 4 hours. […]
Subsequently, the obtained cleavage samples of the peptides having 4 linked epitopes were applied to the LC/MS-MS systems (Acquity UPLC system, Waters; Synapt G2 HDMS, Waters), so as to perform comprehensive analysis of the molecular weights of the peptide fragments. With the use of analytical software (MassLynx, ver. 4.1, SCN712, Waters), the samples were analyzed, and the peptide fragments were identified. The peptides having 4 linked epitopes were evaluated to be cleavable upon development of any of a peptide in which the epitope peptide was cleaved, a peptide comprising arginine residues added to the N terminus of the epitope peptide, or a peptide comprising an arginine dimer added to the N terminus of the epitope peptide, as a result of cleavage with immunoproteasomes.

In the case of “ASLDSDPWV (listed as Homo sapiens) [PEP2]”, the “cleavage determining the C terminal amino acids of the CTL epitope peptide” value is “required to be located at positions nearest to the C terminus”.
The value for “ILEQSGEWWK (listed as Homo sapiens) [PEP10]” was “required to be located at positions nearest to the C terminus”.
